T1: Boi1 SH3 (BOI1_YEAST), P38041
T1 chain: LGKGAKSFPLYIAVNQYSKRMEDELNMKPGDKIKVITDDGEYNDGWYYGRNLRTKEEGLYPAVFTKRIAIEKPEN

T2: Rvs167 SH3 (RV167_YEAST), P39743
T2 chain: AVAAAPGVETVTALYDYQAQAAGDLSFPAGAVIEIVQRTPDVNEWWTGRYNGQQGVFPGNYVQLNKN

T3: Boi2 SH3 (BOI2_YEAST), P39969
T3 chain: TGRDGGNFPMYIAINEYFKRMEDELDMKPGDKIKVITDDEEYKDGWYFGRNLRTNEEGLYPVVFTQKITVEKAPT

T4: Yfr024 SH3 (LSB3_YEAST), P43603
T4 chain: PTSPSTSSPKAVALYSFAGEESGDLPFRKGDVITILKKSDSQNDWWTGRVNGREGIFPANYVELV

T5: Yhr016c SH3 (YSC84_YEAST), P32793
T5 chain: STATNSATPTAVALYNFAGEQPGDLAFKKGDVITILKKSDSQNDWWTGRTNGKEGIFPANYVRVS


How the values were obtained:
Test in all cases: SPOT array
[1] = biological target: T1, Boi1 SH3 (BOI1_YEAST), P38041
[2] = biological target: T2, Rvs167 SH3 (RV167_YEAST), P39743
[3] = biological target: T3, Boi2 SH3 (BOI2_YEAST), P39969
[4] = biological target: T4, Yfr024 SH3 (LSB3_YEAST), P43603
[5] = biological target: T5, Yhr016c SH3 (YSC84_YEAST), P32793

normalised SPOT signal, Boehringer light units (BLU); mean over the file's lines of this peptide [1]	normalised SPOT signal, Boehringer light units (BLU); mean over the file's lines of this peptide [2]	normalised SPOT signal, Boehringer light units (BLU); mean over the file's lines of this peptide [3]	normalised SPOT signal, Boehringer light units (BLU); mean over the file's lines of this peptide [4]	normalised SPOT signal, Boehringer light units (BLU); mean over the file's lines of this peptide [5]	Binder
194	9.9	31.1	874	323	DYNPPPPSRNSPIR [YJL204C 669-682]
460	218	91.1	38900	4170	DSGPQRPKRTRAKG [YDL106C 73-86]
181	114	88.8	5150	1280	DQKPLVPIRIYGAI [YPR023C 316-329]
98.3	44.3	37.8	125	223	DVYPHEPAKNGEGS [YER081W 311-324]
179	16100	25.7	39100	60200	DSLPKLPFRSWGQP [YBR132C 490-503]
61.9	156	34.7	322	200	DSLPFAPLRKVYEL [YBR056W 139-152]
96.5	92.5	62.3	2970	358	DRPPDVPRKIIVGR [YBL067C 301-314]
28.2	32.7	44	4	0	DVLPAGPVRSLEGV [YLR460C 130-143]
108	0	22.9	28.1	156	DSDPNTPKKLSSPR [YNL238W 661-674]
660	14.1	40.8	161	75.3	DPHPEDPRRIYRIY [YNL021W 81-94]
24.6	0	45.9	137	221	DVLPAGPVRSLEGA [YCR102C 122-135]
1520	651	334	27600	4310	DSIPSRPQRRKSVL [YMR221C 258-271]
76.3	23600	61.9	27900	73200	DVPPQLPTRTKSGE [YOR042W 337-350]
142	9.7	35.9	359	37	DVIPKKPLKSAADK [YOL055C 314-327]
47.4	42.3	91.7	681	198	DYLPPVPEKNAGKQ [YDR322W 274-287]
54.8	32.3	72.2	17600	4710	DQAPSLPPKPNTQL [YCL008C 158-171]
50	37.9	22.2	0	0	DSIPVDPEKVVAIV [YBL015W 216-229]
17.6	109	33.4	206	172	DYLPQHPHRTSSLP [YDR103W 109-122]
309	41.3	15.6	15900	3410	DSPPQSPRRSSNSS [YKL185W 464-477]
35500	3120	11300	6750	2400	DYNPTIPPRSKDRP [YOL070C 274-287]
389	33.7	26.5	141	206	DSIPLEPKKAKHLM [YHR118C 82-95]
58.9	62.6	134	117	216	DPLPYSPLKLYDQK [YCR065W 382-395]

Source: paper PMC314469, “Protein Interaction Networks by Proteome Peptide Scanning” (PLoS Biology, 2004)
